Results taken from article PMC2475671.

Target: Orc2-GFP (Drosophila (endogenous in salivary glands)) (UniProt Q24168)
Test: FRET or BRET; acceptor photobleaching (543 nm laser) of Rbf1N-RFP (mCherry) with Orc2-GFP (EGFP) as donor, in chromatin-washed, formaldehyde-fixed salivary gland nuclei; ratio of bleached to non-bleached areas in three nuclei

Sequence of UniProt Q24168 (Q24168 whole entry): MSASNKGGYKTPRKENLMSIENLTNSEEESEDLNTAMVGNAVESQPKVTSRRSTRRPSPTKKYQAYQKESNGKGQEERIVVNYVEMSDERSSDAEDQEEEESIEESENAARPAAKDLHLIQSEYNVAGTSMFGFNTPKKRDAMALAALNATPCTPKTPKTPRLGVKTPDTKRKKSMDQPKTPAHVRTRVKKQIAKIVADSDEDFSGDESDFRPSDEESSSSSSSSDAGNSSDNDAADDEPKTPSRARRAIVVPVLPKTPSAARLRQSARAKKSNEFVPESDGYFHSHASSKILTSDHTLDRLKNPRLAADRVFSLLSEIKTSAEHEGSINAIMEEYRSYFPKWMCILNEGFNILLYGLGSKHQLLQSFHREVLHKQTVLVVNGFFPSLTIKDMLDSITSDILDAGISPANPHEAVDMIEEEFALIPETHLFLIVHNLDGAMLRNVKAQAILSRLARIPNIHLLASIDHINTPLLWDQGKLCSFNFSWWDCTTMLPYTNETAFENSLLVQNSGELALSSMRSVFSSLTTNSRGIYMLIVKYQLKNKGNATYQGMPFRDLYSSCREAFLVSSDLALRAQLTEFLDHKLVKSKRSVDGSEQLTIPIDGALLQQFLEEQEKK

fold increase of GFP fluorescence after RFP photobleaching: 1.5 to 2 fold
Substance: Rbf1N-RFP (Rbf1 amino acids 1–345 with C-terminal V5 and mCherry, Lys241Glu) (domain or fragment)
